This is an account of results in patent publication US11779649B2, “Antibodies to PMEL17 and conjugates thereof” (Novartis AG, priority 2018, dated 2023).

Test [1] has as its system 92.1-luciferase subcutaneous xenografts. Briefly: 92.1-luciferase subcutaneous xenograft tumor growth in female nude mice. The following applies: single i.v. injection, FIG. 18. Type of test: in vivo. The procedure: Treatment (single dose i.v. injection) was performed 17 days post tumor inoculation. Values are mean±SEM; sample size, (n=5-12 mice per group). Initial tumor volume at day 0 was approximately 200-250 mm^3.
Treatments (single dose i.v. injection) were performed 17 days post tumor inoculation. Values represent mean±SEM; sample size, (n=5-6 mice per group). Initial tumor volume at day 0 was approximately 300-325 mm^3. (FIG. 16).
Treatment (single dose i.v. injection) was performed 14-17 days post tumor inoculation. Values are mean±SEM; sample size, (n=5-12 mice per group). Initial tumor volume at day 0 was approximately 200-250 mm3.

In test [2] the test system is 92.1 uveal melanoma. Briefly: Resazurin-based viability assay, 92.1 uveal melanoma cells. Type of test: cell-based. Conditions: 92.1; Table 10; read-out: GI50. The procedure: (§1) Following drug treatment for 96 or 120 hours, cell viability and proliferation were determined using a resazurin-based viability assay. Briefly, cells were incubated with a resazurin-based solution and color change was detected by absorbance with a spectrophotometer and used as a readout of cell viability. Data presented as mean of 3 independent replicates and relative to PBS-treated cells (control).
Following drug treatment for 96 or 120 hours, cell viability and proliferation were determined using a resazurin-based viability assay. Briefly, cells were incubated with a resazurin-based solution and color change was detected by absorbance with a spectrophotometer and used as a readout of cell viability. Data presented as mean of 3 independent replicates and relative to PBS-treated cells (control) (FIG. 6).
Following drug treatment for 96 or 120 hours, cell viability and proliferation were determined using a resazurin-based viability assay. Data presented as mean of 3 independent replicates and relative to PBS-treated cells (control) (FIG. 8).
as §1

For test [3], the system named is PMEL17. Briefly: Cross-reactivity (cross-specificity profile) of anti-PMEL17 IgGs in dose response FACS. Type of test: binding. On the set-up: key: h/c/r/m: human/cyno/rat/mouse; h/c/r: human/cyno/rat; h/c/(m): human/cyno/mouse; h/c: human/cyno. The following applies: h human, c cyno, r rat, m mouse. The method, then: (§2) The cross-specificity of the IgGs was evaluated in does response FACS on G-361 (human melanoma), HKB11-cyno-PMEL17, HKB11-rat PMEL17 and B16-F10 (mouse PMEL17 expressing melanoma) (Table 3). Testing on G-361 was performed using a detection antibody labelled to PE. In contrast, an Alexa-Fluor labelled detection antibody had to be used for testing the candidates on the other cell lines so as to reach detectable signals.
IgGs were classified into several epitope groups according to their cross-specificity profiles.

Test [4] relates to UACC-62. Briefly: FACS titration of IgGs on UACC-62 cells. The format is binding. Conditions: UACC-62, PE-labelled detection antibody. The method, then: (§3) Purified IgGs were titrated on a variety of PMEL17 expressing and PMEL17 non expressing cell lines (for control) to determine EC50 values. Cells were harvested using Accutase, adjusted to ˜4×10^6 cells/ml into FACS buffer (PBS, 3% FCS and 0.02% Na-Azide) and kept on ice to avoid internalization. 15 μl of cell suspension/well were transferred into 384 well V-bottom plates (Greiner, Cat #781280) and incubated with 15 μl of IgGs at different concentrations (most commonly from 200 to 3.5×10−3 nM) for 1 hour at 4° C., gently shaking. Following incubation, cells were washed three times with FACS buffer. After each washing step, cells were centrifuged (250×g, 5 min, 4° C.) and carefully resuspended. 15 μl of detection antibody conjugated to PE (PE-conjugated goat anti-human IgG, F(ab′)2 fragment specific, 1:150 in FACS buffer; Jackson Immuno Research, #109-116-097) or Alexa Fluor (Alexa Fluor-conjugated goat anti-human IgG, F(ab′)2 fragment specific, 1:150 in FACS buffer; Jackson Immuno Research, #109-606-097) were added and samples were incubated for 45 minutes to 1 hour on ice in the dark, gently shaking. After 3 washing steps, cells were resuspended in 30 μl of FACS buffer and samples were measured using the IntelliCyt HTFC device. EC50 values were calculated using the Graphpad Prism software. G-361 melanoma cell line expresses human PMEL17 at a lower level compared to the HKB11-human PMEL17 overexpressing cell line, and therefore allows a more precise ranking of the clones depending on their apparent affinity on cells.

For test [5], the target named is T1, human PMEL17 (Homo sapiens, UniProt P40967).
T1 construct: G-361 melanoma cell line expresses human PMEL17 at a lower level compared to the HKB11-human PMEL17 overexpressing cell line; endogenous in cells; host or cells: G-361 (human melanoma)
T1 sequence (P40967 25-661): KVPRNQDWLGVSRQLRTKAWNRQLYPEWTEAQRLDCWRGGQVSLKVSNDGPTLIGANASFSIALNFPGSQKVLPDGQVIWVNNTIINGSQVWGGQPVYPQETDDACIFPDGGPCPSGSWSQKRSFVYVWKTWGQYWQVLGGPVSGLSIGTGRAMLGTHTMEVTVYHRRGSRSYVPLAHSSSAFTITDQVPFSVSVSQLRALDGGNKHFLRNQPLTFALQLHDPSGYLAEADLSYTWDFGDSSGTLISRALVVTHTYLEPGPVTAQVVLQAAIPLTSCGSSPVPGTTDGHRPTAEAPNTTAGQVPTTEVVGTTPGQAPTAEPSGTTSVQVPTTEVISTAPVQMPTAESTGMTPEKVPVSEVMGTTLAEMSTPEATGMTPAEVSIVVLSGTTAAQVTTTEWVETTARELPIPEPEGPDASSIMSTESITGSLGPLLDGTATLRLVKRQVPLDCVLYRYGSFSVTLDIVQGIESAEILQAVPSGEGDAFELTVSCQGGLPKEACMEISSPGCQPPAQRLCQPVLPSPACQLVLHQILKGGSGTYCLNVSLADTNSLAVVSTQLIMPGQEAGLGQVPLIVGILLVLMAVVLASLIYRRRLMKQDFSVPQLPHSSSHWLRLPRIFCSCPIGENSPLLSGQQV
Briefly: Apparent affinity by FACS titration of IgGs on G-361 melanoma cell line. The format is binding. Conditions: G-361, Alexa Fluor-labelled detection antibody; read-out: FACS EC50 (nM) G-361 (Alexa Fluor). The method, then:
as §3
The cross-specificity of the IgGs was evaluated in does response FACS on G-361 (human melanoma), HKB11-cyno-PMEL17, HKB11-rat PMEL17 and B16-F10 (mouse PMEL17 expressing melanoma) (Table 3). […]
On the technique in general: In flow cytometry, cells or beads pass a laser one at a time.

Test [6] addresses T2, mouse PMEL17 (Mus musculus, UniProt Q60696).
T2 construct: B16-F10 (mouse PMEL17 expressing melanoma); endogenous in cells; host or cells: B16-F10 (mouse melanoma)
T2 sequence (Q60696 24-626): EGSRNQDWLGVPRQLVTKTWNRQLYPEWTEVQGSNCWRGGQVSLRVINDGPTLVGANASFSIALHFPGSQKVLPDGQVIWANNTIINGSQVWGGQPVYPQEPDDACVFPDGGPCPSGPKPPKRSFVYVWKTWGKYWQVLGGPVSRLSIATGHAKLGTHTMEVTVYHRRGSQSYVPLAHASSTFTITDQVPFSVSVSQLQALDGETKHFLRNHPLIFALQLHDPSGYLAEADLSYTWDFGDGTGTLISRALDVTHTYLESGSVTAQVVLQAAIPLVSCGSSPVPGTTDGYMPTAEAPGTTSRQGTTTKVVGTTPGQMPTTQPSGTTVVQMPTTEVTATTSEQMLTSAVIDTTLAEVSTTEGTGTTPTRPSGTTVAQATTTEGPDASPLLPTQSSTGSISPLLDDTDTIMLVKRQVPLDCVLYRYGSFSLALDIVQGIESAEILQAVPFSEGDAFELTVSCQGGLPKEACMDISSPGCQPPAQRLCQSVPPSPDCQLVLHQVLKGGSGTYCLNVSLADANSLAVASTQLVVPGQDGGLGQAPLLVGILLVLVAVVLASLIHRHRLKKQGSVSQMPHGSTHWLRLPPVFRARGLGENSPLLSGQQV
Briefly: Apparent affinity by FACS titration of IgGs on B16-F10 melanoma cells. Type of test: binding. The following applies: Alexa Fluor. The procedure:
as §3, §2

B1: Fc Silent G1-3J-DAR2 (E152C)-(B1) (conjugate)
heavy: QVQLVQSGAEVKKPGSSVKVSCKASGGTFSDYAITWVRQAPGQGLEWMGGIIPIFGTANYAQKFQGRVTITADESTSTAYMELSSLRSEDTAVYYCAREGGLLTDISYSRYWFAYWGQGTLVTVSS
light: SYELTQPLSVSVALGQTARITCSGDALRDKFVYWYQQKPGQAPVLVIYDDNNRPSGIPERFSGSNSGNTATLTISRAQAGDEADYYCQSWDHSYSLVVFGGGTKLTVLGQPKAAPSVTLFPPSSEELQANKATLVCLISDFYPGAVTVAWKADSSPVKAGVETTTPSKQSNNKYAASSYLSLTPEQWKSHRSYSCQVTHEGSTVEKTVAPTECS
modifications: left off: a dimerising Fc or GST
One may read the GI50 as the concentration that inhibits growth by half. For B1, the tumor growth result in test [1] is given as “inhibited tumor growth in a dose-dependent manner”. The GI50 in test [2] turned out to be 0.278 nM.

B2: MOR024353: anti-PMEL17 antibody (IgG) (antibody, V domains shown)
VH: QVQLVQSGAEVKKPGSSVKVSCKASGGTFSDYAISWVRQAPGQGLEWMGGIIPIFGDANYAQKFQGRVTITADESTSTAYMELSSLRSEDTAVYYCAREGSSYFYMAYWGQGTLVTVSS
VL: SYELTQPLSVSVALGQTARITCSGDNIGSKLASWYQQKPGQAPVLVIYDDSNRPSGIPERFSGSNSGNTATLTISRAQAGDEADYYCAATAGDRWAYVFGGGTKLTVL
Broadly, the EC50 is the concentration that produces a half-maximal response. On to B2, for which the “Cross spe profile (based on C14 detection ab)” value in test [3] is reported as “h/c”. Moreover, in test [4], the “UACC-62 (PE)” value is on record as “Negative”. For the same molecule, the EC50 in test [5] is 62.8 nM; in test [6] it was over 100 nM.
